Data published in US6462178B1, “G protein” (Yong Hou Wong, priority 1999, dated 2002).
Blank lines part the entries; values can stand above or below the molecule they belong to.

Assays:
δ-opioid receptor [1] = biological target: T1, δ-opioid receptor (Homo sapiens, UniProt P41143); assay: IP accumulation, δ-opioid receptor coexpressed with Gα subunit in COS-7; assay type: cell-based; conditions: for IP Formation Agonist / IP Formation % Res.: 100 nM DPDPE; for IP Formation % Res.: relative to basal; for stimulation of IP formation: 100 nM
T1 construct: expressed in transfected cells; host or cells: COS-7
T1 sequence (P41143 whole entry): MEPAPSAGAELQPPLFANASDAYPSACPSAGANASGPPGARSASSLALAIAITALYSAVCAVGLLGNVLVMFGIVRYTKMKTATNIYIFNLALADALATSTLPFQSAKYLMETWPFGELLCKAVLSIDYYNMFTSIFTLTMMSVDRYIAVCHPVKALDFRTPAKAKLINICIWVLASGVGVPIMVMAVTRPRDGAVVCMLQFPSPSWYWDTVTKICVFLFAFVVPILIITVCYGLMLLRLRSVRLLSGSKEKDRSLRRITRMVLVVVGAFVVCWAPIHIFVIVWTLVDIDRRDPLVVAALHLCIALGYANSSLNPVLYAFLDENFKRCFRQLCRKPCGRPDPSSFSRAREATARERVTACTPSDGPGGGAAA

[2] = biological target: somatostatin-1 receptor (SSTR1)
melatonin Mel1b receptor = biological target: T2, melatonin Mel1b receptor
T2 sequence (P49286 whole entry, species assumed, looked up): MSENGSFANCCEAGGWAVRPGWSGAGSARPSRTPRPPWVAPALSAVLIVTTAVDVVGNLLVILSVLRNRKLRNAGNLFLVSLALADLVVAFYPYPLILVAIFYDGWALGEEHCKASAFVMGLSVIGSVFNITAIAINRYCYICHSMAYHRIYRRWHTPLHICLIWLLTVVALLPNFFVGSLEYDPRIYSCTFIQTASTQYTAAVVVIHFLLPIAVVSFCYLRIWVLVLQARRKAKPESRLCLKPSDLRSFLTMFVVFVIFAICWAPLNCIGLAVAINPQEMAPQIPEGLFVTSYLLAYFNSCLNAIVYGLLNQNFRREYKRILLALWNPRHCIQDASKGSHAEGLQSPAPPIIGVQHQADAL

δ-opioid receptor [3] = biological target: δ-opioid receptor
[4] = biological target: formyl peptide (fMLP) receptor
complement C5a receptor [5] = biological target: complement C5a receptor
complement C5a receptor [6] = biological target: T3, complement C5a receptor (Homo sapiens, UniProt P21730); assay: IP accumulation, complement C5a receptor coexpressed with Gα subunit in COS-7; assay type: cell-based; conditions: 100 nM C5a; for IP Formation % Res.: relative to basal
T3 construct: expressed in transfected cells; host or cells: COS-7
T3 sequence (P21730 1-350): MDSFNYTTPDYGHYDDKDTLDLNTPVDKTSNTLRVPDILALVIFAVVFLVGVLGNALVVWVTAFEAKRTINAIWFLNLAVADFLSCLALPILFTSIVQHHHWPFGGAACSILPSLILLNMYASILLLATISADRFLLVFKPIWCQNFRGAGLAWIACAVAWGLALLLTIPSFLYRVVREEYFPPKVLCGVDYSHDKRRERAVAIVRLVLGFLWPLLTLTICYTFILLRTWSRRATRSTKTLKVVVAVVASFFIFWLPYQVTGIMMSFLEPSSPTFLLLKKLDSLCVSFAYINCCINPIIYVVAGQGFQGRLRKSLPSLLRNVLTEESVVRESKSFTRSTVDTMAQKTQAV

[7] = COS-7, receptor + 16z25 chimera
[8] = COS-7, receptor + 16z44 chimera

dopamine D2 receptor, sequence (P14416 whole entry): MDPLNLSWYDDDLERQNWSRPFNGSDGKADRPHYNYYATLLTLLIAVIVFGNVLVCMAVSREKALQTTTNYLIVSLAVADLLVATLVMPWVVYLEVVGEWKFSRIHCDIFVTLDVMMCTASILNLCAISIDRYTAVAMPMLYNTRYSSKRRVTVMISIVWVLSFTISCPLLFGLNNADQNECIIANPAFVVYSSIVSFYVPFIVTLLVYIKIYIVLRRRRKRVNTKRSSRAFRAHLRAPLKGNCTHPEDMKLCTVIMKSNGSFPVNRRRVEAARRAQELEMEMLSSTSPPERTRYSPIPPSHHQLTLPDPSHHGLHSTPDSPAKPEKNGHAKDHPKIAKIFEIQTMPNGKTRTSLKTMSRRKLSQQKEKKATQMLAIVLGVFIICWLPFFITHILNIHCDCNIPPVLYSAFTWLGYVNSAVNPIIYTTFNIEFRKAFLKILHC

IP formation with agonist (control cells without 16z44) (IP formation (unit not given)) (bombesin receptor): 149
Molecule: bombesin (peptide)

EC50 for IP formation (cells coexpressing 16z44) [2]: 3 nM | EC50 for IP formation (cells coexpressing Gα16) [2]: 20 nM
Molecule: somatostatin (peptide)

IP formation with agonist (cells coexpressing 16z44) (IP formation (unit not given)) (vasopressin V2 receptor): 59.8
Molecule: vasopressin (peptide)

Second part, the molecule before the results:

Molecule: [D-Pen^2,D-Pen^5]enkephalin [DPDPE]
IP Formation Agonist (δ-opioid receptor [1]; [7]): 66.8 ± 7.1 | IP Formation % Res. (δ-opioid receptor [1]; [7]): 287% | IP Formation Agonist (δ-opioid receptor [1]; [8]): 121.8 ± 9.1 | IP Formation % Res. (δ-opioid receptor [1]; [8]): 548% | IP Formation Agonist (δ-opioid receptor [1]; COS-7, receptor + Gα16): 42.2 ± 6.1 | IP Formation % Res. (δ-opioid receptor [1]; COS-7, receptor + Gα16): 417% | maximal stimulation, 16z44-mediated relative to Gα16-mediated response (δ-opioid receptor [1]; COS-7, δ-opioid receptor): twice that of the Gα16-mediated response | DPDPE response (IP formation) (δ-opioid receptor [1]; COS-7, δ-opioid receptor + 16z3, 16z6 or 16z66): failed to mediate the DPDPE response | IP formation (δ-opioid receptor [1]; COS-7, δ-opioid receptor + 30z16): doubled the IP formation | response to agonist-activated δ-opioid receptor (IP formation) (δ-opioid receptor [1]; COS-7, δ-opioid receptor + 30z16z66): unable to respond | stimulation of IP formation (δ-opioid receptor [1]; COS-7 coexpressing Gα16 and δ-opioid receptor): 3 fold | stimulation of IP formation (δ-opioid receptor [1]; COS-7 coexpressing δ-opioid receptor with either 16z25 or 16z44): 3-4.5 folds | formation of IP (δ-opioid receptor [1]; COS-7 cotransfected with δ-opioid receptor and Gαz, agonist treatment): failed to evoke formation of IP

B1: 16z25 chimera (protein)
chain: MARSLTWRCCPWCLTEDEKAAARVDQEINRILLEQKKQDRGELKLLLLGPGESGKSTFIKQMRIIHGAGYSEEERKGFRPLVYQNIFVSMRAMIEAMERLQIPFSRPESKHHASLVMSQDPYKVTTFEKRYAAAMQWLWRDAGIRACYERRREFHLLDSAVYYLSHLERITEEGYVPTAQDVLRSRMPTTGINEYCFSVQKTNLRIVDVGGQKSERKKWIHCFENVIALIYLASLSEYDQCLEENNQENRMKESLALFGTILELPWFKSTSVILFLNKTDILEEKIPTSHLATYFPSFQGPKQDAEAAKRFILDMYTRMYTGCVDGPEGSKKGARSRRLFSHYTCATDTSNIQFVFDAVTDVIIQNNLKYIGLC
IP formation (PLC stimulation), % Res. (melatonin Mel1b receptor): 155 % Res. | IP formation (PLC stimulation), % Res. (µ-opioid receptor): 224 % Res. | IP formation (PLC stimulation), % Res. (κ-opioid receptor): 188 % Res. | IP formation (PLC stimulation), % Res. (melatonin Mel1a receptor): 150 % Res. | IP formation (PLC stimulation), % Res. (δ-opioid receptor [3]): 287 % Res. | IP formation (PLC stimulation), % Res. (α2-adrenergic receptor): 365 % Res. | IP formation (PLC stimulation), % Res. (dopamine D1 receptor): 214 % Res. | IP formation (PLC stimulation), % Res. (adenosine A1 receptor): 197 % Res. | IP formation (PLC stimulation), % Res. [4]: 352 % Res. | IP formation (PLC stimulation), % Res. (β2-adrenergic receptor): 360 % Res. | IP formation (PLC stimulation), % Res. (vasopressin V2 receptor): 291 % Res. | IP formation (PLC stimulation), % Res. (complement C5a receptor [5]): 432 % Res. | IP formation (PLC stimulation), % Res. (melatonin Mel1c receptor): 270 % Res. | IP formation (PLC stimulation), % Res. (dopamine D2 receptor): 324 % Res.

B2: Gα16 (protein)
chain: MARSLTWRCCPWCLTEDEKAAARVDQEINRILLEQKKQDRGELKLLLLGPGESGKSTFIKQMRIIHGAGYSEEERKGFRPLVYQNIFVSMRAMIEAMERLQIPFSRPESKHHASLVMSQDPYKVTTFEKRYAAAMQWLWRDAGIRACYERRREFHLLDSAVYYLSHLERITEEGYVPTAQDVLRSRMPTTGINEYCFSVQKTNLRIVDVGGQKSERKKWIHCFENVIALIYLASLSEYDQCLEENNQENRMKESLALFGTILELPWFKSTSVILFLNKTDILEEKIPTSHLATYFPSFQGPKQDAEAAKRFILDMYTRMYTGCVDGPEGSKKGARSRRLFSHYTCATDTQNIRKVFKDVRDSVLARYLDEINLL
IP formation (PLC stimulation), % Res. (melatonin Mel1b receptor): 195 % Res. | IP formation (PLC stimulation), % Res. (µ-opioid receptor): 134 % Res. | IP formation (PLC stimulation), % Res. (κ-opioid receptor): 327 % Res. | IP formation (PLC stimulation), % Res. (melatonin Mel1a receptor): 296 % Res. | IP formation (PLC stimulation), % Res. (δ-opioid receptor [3]): 417 % Res. | IP formation (PLC stimulation), % Res. (α2-adrenergic receptor): 730 % Res. | IP formation (PLC stimulation), % Res. [4]: 566 % Res. | IP formation (PLC stimulation), % Res. (vasopressin V2 receptor): 332 % Res. | IP formation (PLC stimulation), % Res. (complement C5a receptor [5]): 608 % Res. | IP formation (PLC stimulation), % Res. (melatonin Mel1c receptor): 115 % Res.

B3: C5a: complement C5a, agonist of the C5a receptor (protein, UniProt P01031 678-751, looked up)
C5a anaphylatoxin: TLQKKIEEIAAKYKHSVVKKCCYDGACVNNDETCEQRAARISLGPRCIKAFTECCVVASQLRANISHKDMQLGR
modifications: C5a anaphylatoxin
notes: complement C5a, agonist of the C5a receptor
IP Formation Agonist (complement C5a receptor [6]; [7]): 79.6 ± 6.5 | IP Formation % Res. (complement C5a receptor [6]; [7]): 432% | IP Formation Agonist (complement C5a receptor [6]; [8]): 87.4 ± 7.2 | IP Formation % Res. (complement C5a receptor [6]; [8]): 457% | IP Formation Agonist (complement C5a receptor [6]; COS-7, receptor + Gα16): 67.5 ± 8.1 | IP Formation % Res. (complement C5a receptor [6]; COS-7, receptor + Gα16): 608%
